The data set deals with T1, FAM20C (Mus musculus, UniProt Q5MJS3).
T1 construct: His (from vector pcDNA3.1/V5-His B) (C); made in house; host or cells: HEK293T
T1 sequence (Q5MJS3 88-579): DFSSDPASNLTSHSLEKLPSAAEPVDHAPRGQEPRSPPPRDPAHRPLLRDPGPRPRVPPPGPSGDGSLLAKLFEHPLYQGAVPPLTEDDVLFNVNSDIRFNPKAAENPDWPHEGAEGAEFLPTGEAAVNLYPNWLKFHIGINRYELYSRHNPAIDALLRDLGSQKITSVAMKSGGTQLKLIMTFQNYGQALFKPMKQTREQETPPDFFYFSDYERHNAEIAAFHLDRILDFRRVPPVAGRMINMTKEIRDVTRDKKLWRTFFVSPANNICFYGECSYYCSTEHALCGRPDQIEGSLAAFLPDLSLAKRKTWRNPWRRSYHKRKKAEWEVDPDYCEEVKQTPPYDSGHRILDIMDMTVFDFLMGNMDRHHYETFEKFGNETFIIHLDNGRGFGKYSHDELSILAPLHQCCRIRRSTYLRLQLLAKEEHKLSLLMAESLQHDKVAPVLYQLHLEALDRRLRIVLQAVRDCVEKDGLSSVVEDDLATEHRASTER
The data set is described as follows: FAM20C in vitro kinase assay with dephosphorylated alpha-Casein as substrate. It counts as biochemical. The note with it: Casein as model substrate; 5 minute assays. How it is done:
For FAM20C:V5 purification, pcDNA-FAM20C:V5 was transfected to HEK293T cells, and FAM20C:V5 was purified from conditioned media using anti-V5 agarose beads (Sigma). Condition media were incubated with anti-V5 affinity gel (Sigma) overnight at 4° C. Agarose beads were collected by centrifugation, and washed 5 times with TBS. Proteins were eluted using V5 peptides in TBS (Sigma, final concentration: 100 μg/ml). For purification of OPN:FLAG, BSP:FLAG, DMP1:FLAG, DSPP:FLAG and MEPE:FLAG, condition media were incubated with anti-FLAG M2 affinity gel (Sigma) overnight at 4° C. Agarose beads were collected by centrifugation, and washed 5 times with TBS. Purified quantification was performed on gels stained by SYPRO Ruby Protein Gel Stain (Invitrogen), using BSA as a standard.
FAM20C kinase assays were performed in 10 μl reactions, with 500 μM ATP, including 3 μCi (0.05 μM) of [gamma-^32P]ATP (6000 Ci/mmol, PerkinElmer), 50 mM Tris (pH 7.0), 10 mM MnCl2, 0.1% BSA, purified FAM20C:V5 (5 ng, […]), and dephosphorylated alpha-Casein (0.1 μg, Sigma). […] Radioactivity within the gels was detected using a Molecular Dynamics Phosphor Imager. For quantitation of gamma-^32P incorporation, bands were cut out of the gels using the Phosphor Imager pictures as a reference, and then counted by liquid scintillation using a Beckman Coulter LC6500. […]

B1: FAM20C: affinity purified V5-tagged mouse FAM20C, Golgi-localized protein kinase (protein)
chain: T1 sequence (Q5MJS3 88-579)
modifications: left off: small tags and cut ends
As to B1, the V. turned out to be 0.7 μM ATP/min/mg FAM20C and the “turnover number (kcat)” value came to 52 per minute.

The values above are taken from US20120184713A1, “Compositions and Methods for Modulation of Bone Density and Biomineralization” (priority 2011, published 2012).
